Target: human CRBN (amino acids 40-442) in complex with full length human DDB1 (human) (UniProt Q96SW2)
Assay: SPR (Biacore T200): GST-GSPT1 domains 2 and 3 captured by anti-GST antibody, CRBN-DDB1 as analyte, 10 uM Compound C; data not shown

human CRBN (amino acids 40-442) in complex with full length human DDB1 (human), sequence (Q96SW2 40-442, chain 1 of 2): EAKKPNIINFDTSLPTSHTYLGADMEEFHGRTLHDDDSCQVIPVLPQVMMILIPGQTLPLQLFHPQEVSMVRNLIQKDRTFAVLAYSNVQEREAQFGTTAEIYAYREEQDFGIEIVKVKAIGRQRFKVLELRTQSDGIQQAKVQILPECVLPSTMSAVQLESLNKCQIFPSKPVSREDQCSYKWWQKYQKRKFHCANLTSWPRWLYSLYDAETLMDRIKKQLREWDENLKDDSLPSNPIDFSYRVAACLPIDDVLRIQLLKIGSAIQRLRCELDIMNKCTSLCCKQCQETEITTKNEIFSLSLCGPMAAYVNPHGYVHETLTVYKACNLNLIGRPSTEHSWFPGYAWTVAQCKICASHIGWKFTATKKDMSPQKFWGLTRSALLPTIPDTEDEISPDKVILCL
human CRBN (amino acids 40-442) in complex with full length human DDB1 (human), sequence (Q16531 2-1140, chain 2 of 2, further chain): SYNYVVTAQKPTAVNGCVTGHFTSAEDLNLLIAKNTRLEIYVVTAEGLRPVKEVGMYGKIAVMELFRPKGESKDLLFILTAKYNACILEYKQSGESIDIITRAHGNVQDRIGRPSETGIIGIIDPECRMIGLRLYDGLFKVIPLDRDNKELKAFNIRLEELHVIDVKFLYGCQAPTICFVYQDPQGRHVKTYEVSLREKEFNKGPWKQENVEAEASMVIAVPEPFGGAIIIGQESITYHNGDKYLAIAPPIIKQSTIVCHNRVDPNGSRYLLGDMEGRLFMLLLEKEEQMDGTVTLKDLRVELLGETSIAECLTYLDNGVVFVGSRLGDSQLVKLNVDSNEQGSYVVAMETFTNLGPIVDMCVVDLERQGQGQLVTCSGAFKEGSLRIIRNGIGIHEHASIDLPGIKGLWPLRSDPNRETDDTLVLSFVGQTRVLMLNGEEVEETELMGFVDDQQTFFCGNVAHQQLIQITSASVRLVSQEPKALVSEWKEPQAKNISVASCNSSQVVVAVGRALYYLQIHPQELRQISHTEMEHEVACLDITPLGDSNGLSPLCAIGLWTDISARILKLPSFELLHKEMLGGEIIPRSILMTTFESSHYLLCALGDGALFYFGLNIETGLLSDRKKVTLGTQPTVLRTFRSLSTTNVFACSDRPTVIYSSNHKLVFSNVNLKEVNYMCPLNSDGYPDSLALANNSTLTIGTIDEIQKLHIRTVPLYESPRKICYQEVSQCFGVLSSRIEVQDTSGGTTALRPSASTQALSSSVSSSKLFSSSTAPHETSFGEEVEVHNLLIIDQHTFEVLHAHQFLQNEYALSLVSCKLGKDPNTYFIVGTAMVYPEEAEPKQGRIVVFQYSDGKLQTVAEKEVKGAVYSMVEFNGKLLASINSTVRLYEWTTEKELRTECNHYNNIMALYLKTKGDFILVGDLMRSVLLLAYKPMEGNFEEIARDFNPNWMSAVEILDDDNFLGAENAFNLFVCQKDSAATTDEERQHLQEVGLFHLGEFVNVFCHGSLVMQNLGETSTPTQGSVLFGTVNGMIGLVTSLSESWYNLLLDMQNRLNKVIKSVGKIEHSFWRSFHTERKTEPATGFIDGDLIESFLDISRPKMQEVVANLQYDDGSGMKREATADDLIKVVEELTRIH

GST-GSPT1-domain 2 and 3 (from UniProt P15170 437-633)
Kd: 400 nM

From US10830762
